These results are taken from paper PMC5526940 (Scientific Reports, 2017).

Sequences and labels used below:
T1: chicken egg white ovalbumin (chicken, UniProt P01012 1-386)
T1 construct: Printed on the microarray at 0.5 mg/mL; source: bought: Sigma-Aldrich
T1 sequence (looked up): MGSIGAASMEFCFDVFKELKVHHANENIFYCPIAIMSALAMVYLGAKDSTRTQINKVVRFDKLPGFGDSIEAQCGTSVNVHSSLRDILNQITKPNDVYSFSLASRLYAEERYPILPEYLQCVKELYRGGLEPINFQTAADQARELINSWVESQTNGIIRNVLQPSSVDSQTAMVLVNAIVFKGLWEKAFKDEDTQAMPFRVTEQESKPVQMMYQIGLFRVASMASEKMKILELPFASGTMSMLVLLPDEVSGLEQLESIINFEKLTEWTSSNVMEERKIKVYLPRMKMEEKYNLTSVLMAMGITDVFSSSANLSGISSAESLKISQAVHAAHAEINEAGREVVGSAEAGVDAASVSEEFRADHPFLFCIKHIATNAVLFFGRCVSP

T2: Phaseolus vulgaris leucoagglutinin (Phaseolus vulgaris, UniProt P05087 21-272, TRITC label)
T2 construct: Phaseolus vulgaris leucoagglutinin; also called PHA-L; source: bought: EY Laboratories or Vector Laboratories (TRITC-labelled)
T2 sequence: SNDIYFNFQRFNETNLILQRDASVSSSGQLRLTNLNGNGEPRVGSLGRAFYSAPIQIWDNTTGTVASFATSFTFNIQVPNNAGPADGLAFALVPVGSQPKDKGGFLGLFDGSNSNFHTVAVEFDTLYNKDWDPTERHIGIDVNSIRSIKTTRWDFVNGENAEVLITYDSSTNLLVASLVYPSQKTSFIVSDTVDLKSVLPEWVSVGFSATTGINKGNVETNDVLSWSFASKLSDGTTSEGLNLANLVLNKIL

B1: Phaseolus vulgaris erythroagglutinin (natural protein)
chain: ASQTSFSFQRFNETNLILQRDATVSSKGQLRLTNVNDNGEPTLSSLGRAFYSAPIQIWDNTTGAVAASPTSFTFNIDVPNNSGPADGLAFVLLPVGSQPKDKGGLLGLFNNYKYDSNAHTVAVEFDTLYNVHWDPKPRHIGIDVNSIKSIKTTTWDFVKGENAEVLITYDSSTKLLVASLVYPSLKTSFIVSDTVDLKSVLPEWVIVGFTATTGITKGNVETNDILSWSFASKLSDGTTSEALNLANFALNQIL
modifications: TRITC label
notes: Phaseolus vulgaris erythroagglutinin; also called PHA-E; source: bought: EY Laboratories or Vector Laboratories (TRITC-labelled)
B2: chicken egg white ovomucoid (natural protein, UniProt P01005 25-210, looked up)
chain: AEVDCSRFPNATDKEGKDVLVCNKDLRPICGTDGVTYTNDCLLCAYSIEFGTNISKEHDGECKETVPMNCSSYANTTSEDGKVMVLCNRAFNPVCGTDGVTYDNECLLCAHKVEQGASVDKRHDGGCRKELAAVSVDCSEYPKPDCTAEDRPLCGSDNKTYGNKCNFCNAVVESNGTLTLSHFGKC
notes: Printed on the microarray at 0.5 mg/mL; also called OVM; source: bought: Sigma-Aldrich

Common to all, as to assay: peptide or protein array
Holding throughout (settings): both partners purified

Experiment [1] concerns the target T1, chicken egg white ovalbumin.
Experiment [2] deals with T2, Phaseolus vulgaris leucoagglutinin.
The target of experiment [3] is B1.

As for B1, the binding result in experiment [1] is reported as “binds”.

On to B2, for which the binding result in experiment [2] and in experiment [3] was “binds” each time.
